The data set concerns the molecule itself. The data set can be described thus: FRET or BRET. (BRET reads energy transfer from a luciferase to a nearby fluorophore.)

B1: thromboxane A2 receptor alpha (TPα), fused to renilla luciferase (TPαrLUC) or to yellow fluorescent protein (TPαYFP) (receptor, UniProt P21731 1-343, looked up)
chain: MWPNGSSLGPCFRPTNITLEERRLIASPWFAASFCVVGLASNLLALSVLAGARQGGSHTRSSFLTFLCGLVLTDFLGLLVTGTIVVSQHAALFEWHAVDPGCRLCRFMGVVMIFFGLSPLLLGAAMASERYLGITRPFSRPAVASQRRAWATVGLVWAAALALGLLPLLGVGRYTVQYPGSWCFLTLGAESGDVAFGLLFSMLGGLSVGLSFLLNTVSVATLCHVYHGQEAAQQRPRDSEVEMMAQLLGIMVVASVCWLPLLVFIAQTVLRNPPAMSPAGQLSRTTEKELLIYLRVATWNQILDPWVYILFRRAVLRRLQPRLSTRPRSLSLQPQLTQRSGLQ
B1 gave a BRET50 of 1.24 YFP fold over basal.

The values above are taken from paper PMC2924460 (Arteriosclerosis, thrombosis, and vascular biology, 2010).
